Earlier results as cited in publication PMC3408481.

How the values were obtained:
VIP (Homo sapiens) = VIP (Homo sapiens) (UniProt P01282)
PACAP (Homo sapiens) = PACAP (Homo sapiens) (UniProt P18509)
Sequence of UniProt P18509 (P18509 82-129): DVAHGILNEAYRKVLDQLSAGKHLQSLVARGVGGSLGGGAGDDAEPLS

Sequence of UniProt P01282 (P01282 125-152): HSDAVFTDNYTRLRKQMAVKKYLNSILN

Kd (VIP (Homo sapiens)): 500 nM | Kd (PACAP (Homo sapiens)): 0.5 nM
Substance: PAC1 receptor (from UniProt P41586)
